# pKd: −log10 of the molar value.
# Columns and labels:
# HLA-C*06:02 = experiment: IEDB peptide-MHC binding, purified MHC/direct/fluorescence; filed as Kd, often an IC50 or EC50 that approximates it; ≥ and ≤ were set here for values at or beyond the usual limits of such assays
# HLA-C*07:02 = experiment: as above
# HLA-A*26:03 = experiment: as above; details: source organism: Variola virus
# HLA-A*31:01 = experiment: as above
# HLA-B*58:01 = experiment: as above
# HLA-A*11:01 = experiment: as above
# HLA-A*01:01 = experiment: as above
# HLA-A*69:01 = experiment: as above
# HLA-A*26:01 = experiment: as above
# HLA-A*24:03 = experiment: as above; details: source organism: Camelpox virus M-96
# HLA-B*15:01 [1] = experiment: as above
# HLA-B*08:02 = experiment: as above; details: source organism: Variola virus
# HLA-B*57:01 [2] = experiment: IEDB peptide-MHC binding, purified MHC/competitive/fluorescence; filed as Kd, often an IC50 or EC50 that approximates it; ≥ and ≤ were set here for values at or beyond the usual limits of such assays; details: source organism: Variola virus
# HLA-B*18:01 = experiment: as above; details: source organism: Variola virus
# HLA-A*68:02 = experiment: as above; details: source organism: Variola virus
# HLA-B*07:02 [3] = experiment: as above; details: source organism: Variola virus
# HLA-B*15:17 [4] = experiment: as above; details: source organism: Variola virus
# HLA-B*08:01 [5] = experiment: as above; details: source organism: Variola virus
# HLA-A*02:01 [6] = experiment: as above; details: source organism: Variola virus
# HLA-A*26:02 = experiment: as above; details: source organism: Variola virus
# HLA-B*73:01 = experiment: as above
# HLA-B*48:01 [7] = experiment: as above; details: source organism: Encephalitozoon cuniculi GB-M1
# HLA-B*27:05 [8] = experiment: as above; details: source organism: Encephalitozoon cuniculi GB-M1
# HLA-B*57:01 [9] = experiment: IEDB peptide-MHC binding, purified MHC/direct/fluorescence; filed as Kd, often an IC50 or EC50 that approximates it; ≥ and ≤ were set here for values at or beyond the usual limits of such assays; details: source organism: Mycobacterium tuberculosis
# HLA-A*03:01 = experiment: as above
# HLA-B*48:01 [10] = experiment: as above; details: source organism: Mycobacterium tuberculosis
# HLA-B*51:01 = experiment: as above; details: source organism: Mycobacterium tuberculosis
# HLA-B*15:17 [11] = experiment: as above; details: source organism: Mycobacterium tuberculosis
# HLA-B*15:09 = experiment: as above; details: source organism: Mycobacterium tuberculosis str. Haarlem
# HLA-B*46:01 = experiment: as above; details: source organism: Mycobacterium tuberculosis
# HLA-B*27:05 [12] = experiment: as above
# HLA-A*02:01 [13] = experiment: as above
# HLA-B*40:01 = experiment: as above
# HLA-A*32:15 = experiment: IEDB peptide-MHC binding, purified MHC/competitive/fluorescence; filed as Kd, often an IC50 or EC50 that approximates it; ≥ and ≤ were set here for values at or beyond the usual limits of such assays; details: source organism: Mycobacterium tuberculosis C
# HLA-B*15:42 = experiment: as above; details: source organism: Mycobacterium tuberculosis C
# HLA-B*15:01 [14] = experiment: as above; details: source organism: Mycobacterium tuberculosis C
# HLA-B*83:01 = experiment: as above; details: source organism: Mycobacterium tuberculosis C
# HLA-B*45:06 = experiment: as above; details: source organism: Mycobacterium tuberculosis C
# HLA-C*04:01 = experiment: IEDB peptide-MHC binding, purified MHC/direct/fluorescence; filed as Kd, often an IC50 or EC50 that approximates it; ≥ and ≤ were set here for values at or beyond the usual limits of such assays; details: source organism: Homo sapiens
# HLA-B*44:02 = experiment: as above; details: source organism: Vibrio cholerae
# HLA-B*07:02 [15] = experiment: as above; details: source organism: Vibrio cholerae
# HLA-A*30:01 = experiment: as above; details: source organism: Vibrio cholerae
# HLA-B*08:01 [16] = experiment: as above; details: source organism: Vibrio cholerae
# [17] = source organism: Vibrio vulnificus CMCP6
# [18] = source organism: Camelpox virus M-96
# [19] = source organism: Encephalitozoon cuniculi GB-M1
# [20] = source organism: Mycobacterium tuberculosis
# [21] = source organism: Vibrio cholerae
sequence,measurement,setting,value
FMIVNNFPV,pKd,HLA-C*06:02; [17],6.20
same,pKd,HLA-C*07:02; [17],5.99
EYKKFIATF,pKd,HLA-A*26:03,≤ 4.70
same,pKd,HLA-A*31:01; [18],≤ 4.70
same,pKd,HLA-B*58:01; source organism: Variola virus,6.59
same,pKd,HLA-A*11:01; [18],≤ 4.70
same,pKd,HLA-A*01:01; [18],≤ 4.70
same,pKd,HLA-A*69:01; [18],≤ 4.70
same,pKd,HLA-A*26:01; source organism: Variola virus,≤ 4.70
same,pKd,HLA-A*24:03,7.49
same,pKd,HLA-B*15:01 [1]; [18],≤ 4.70
same,pKd,HLA-B*08:02,≤ 4.70
same,pKd,HLA-B*57:01 [2],5.31
same,pKd,HLA-B*18:01,7.23
same,pKd,HLA-A*68:02,≤ 4.70
same,pKd,HLA-B*07:02 [3],5.52
same,pKd,HLA-B*15:17 [4],6.06
same,pKd,HLA-B*08:01 [5],≤ 4.70
same,pKd,HLA-A*02:01 [6],≤ 4.70
same,pKd,HLA-A*26:02,6.09
YRFNLRRKM,pKd,HLA-C*06:02; [19],8.00
same,pKd,HLA-B*73:01; [19],7.07
same,pKd,HLA-B*48:01 [7],≤ 4.70
same,pKd,HLA-B*27:05 [8],8.92
LPAEVRAAF,pKd,HLA-B*57:01 [9],≤ 4.70
same,pKd,HLA-A*31:01; [20],≤ 4.70
same,pKd,HLA-B*58:01; [20],≤ 4.70
same,pKd,HLA-A*03:01; [20],≤ 4.70
same,pKd,HLA-A*11:01; [20],≤ 4.70
same,pKd,HLA-B*48:01 [10],≤ 4.70
same,pKd,HLA-B*51:01,≤ 4.70
same,pKd,HLA-B*15:17 [11],≤ 4.70
same,pKd,HLA-B*15:09,≤ 4.70
same,pKd,HLA-A*01:01; [20],5.34
same,pKd,HLA-B*46:01,≤ 4.70
same,pKd,HLA-B*27:05 [12]; [20],≤ 4.70
same,pKd,HLA-A*69:01; [20],5.88
same,pKd,HLA-A*26:01; source organism: Mycobacterium tuberculosis str. Haarlem,6.05
same,pKd,HLA-A*02:01 [13]; [20],≤ 4.70
same,pKd,HLA-B*40:01; [20],≤ 4.70
same,pKd,HLA-A*32:15,6.12
same,pKd,HLA-B*15:42,≤ 5.30
same,pKd,HLA-B*15:01 [14],≤ 4.70
same,pKd,HLA-B*83:01,7.17
same,pKd,HLA-B*45:06,≤ 5.30
YYNAFHWAI,pKd,HLA-C*07:02; source organism: Homo sapiens,6.15
RKKLRPRWL,pKd,HLA-C*06:02; source organism: dengue virus type 1,≤ 4.70
WYDALCVLL,pKd,HLA-C*04:01,7.46
GKFFAQAFL,pKd,HLA-B*44:02,≤ 4.70
same,pKd,HLA-A*31:01; [21],≤ 4.70
same,pKd,HLA-B*58:01; [21],≤ 4.70
same,pKd,HLA-A*03:01; [21],≤ 4.70
same,pKd,HLA-A*11:01; [21],≤ 4.70
same,pKd,HLA-B*07:02 [15],≤ 4.70
same,pKd,HLA-A*01:01; [21],≤ 4.70
same,pKd,HLA-B*27:05 [12]; [21],5.89
same,pKd,HLA-A*30:01,6.12
same,pKd,HLA-B*08:01 [16],≤ 4.70
same,pKd,HLA-A*69:01; [21],≤ 4.70
same,pKd,HLA-A*26:01; [21],≤ 4.70
same,pKd,HLA-A*02:01 [13]; [21],≤ 4.70
same,pKd,HLA-B*15:01 [1]; [21],≤ 4.70
same,pKd,HLA-B*40:01; [21],≤ 4.70
same,pKd,HLA-B*73:01; [21],≤ 4.70
YFYYNAFHW,pKd,HLA-C*04:01,≤ 4.70
same,pKd,HLA-C*07:02; source organism: Homo sapiens,5.69
SDFFDRLQV,pKd,HLA-B*73:01; source organism: Cryptosporidium parvum Iowa II,≤ 4.70

# Reference: the Immune Epitope Database (IEDB)
